# Experimental data: the nanobody polyreactivity screen of Harvey et al. (2022)
# Assay: yeast display, Sf9 membrane polyspecificity reagent, FACS + sequencing; frameworks hold sequencing errors
# How it was run: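 Genes from sorted yeast were amplified by colony PCR, read by MiSeq 2 × 250 sequencing and filtered on CDR length. These cells carried a synthetic nanobody library in Saccharomyces cerevisiae BJ5465 and were sorted by FACS into low and high (top ~1%) gates on anti-HA and streptavidin fluorescence. Polyreactivity is labelled according to the gate of origin.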
row,Sequence,polyreactivity (PSR sort gate)
1,QVQLVESGGGLVQAGGSLRLSCAASGSTFYWYAKGWYRQAPGKERELVAAITSTGGSTYADSVKGRFTISRDNAKNTVYLQMNSLKPEDTAVYYCNVDTSSPSRRDYDYWGQGTQVTVSS,low polyreactivity
2,QVQLVESGGGLVQAGGSLRLSCAASGSTFYWYSMGWYRQAPGKERELVAAITSTGGSTYADSVKGRFTISRDNAKNTVYLQMNSLKPEDTAVYYCNVDTSSPSRRDYDYWGQGTQVTVSS,low polyreactivity
3,QVQLVESGGGLVQAGGSLRLSCAASGSTFYWYTMGWYRQAPGKEREMVATITSVGRTNYADSVKGRFTISRDNAKNTVYLQMNSLKPEDTAVYYCAASKARWPRGGSKYYYWGQGTQVSVSS,high polyreactivity
4,QVQLVESGGGLVQAGGSLRLSCAASGSTFYYAIGRYRQAPGKERELVASITFSTGSTYYADSVKGRFTISRDNAKNTVYLQLNSLKPEDTAVYYCATGVDTYSLTVEHDSWGQGTQVTVSS,low polyreactivity
5,QVQLVESGGGLVQAGGSLRLSCAASGSTFYYAMGWYRQAPGKERELVASITFSTGSTYYADSVKGRFTISRDNAKNTVYLQMTSLKPEDTAVYYCATGVDTYSLTVEHDSWGQGTQVTVSS,low polyreactivity
6,QVQLVESGGGLVQAGGSLRLSCAASGSTFYYKSMGWYRQAPGKERELVAAITFTGGSTYADSVKGRFTISRDNAKNTVYLQMNSLIPEDTAVYYCAATIQGHDYLGTGYDYWGQGTQVTVSS,low polyreactivity
7,QVQLVESGGGLVQAGGSLRLSCAASGSTFYYNAMGWYRQAPGKETELVADISWRGGITYYADSVKGRFTISRDNAKNTVYLQMNSLKPEDTAVYYCNADAESFDDGYWGQGTQVTVSS,low polyreactivity
8,QVQLVESGGGLVQAGGSLRLSCAASGSTFYYNTMGWYRQAPGKERELVAAITSGDTTYYADSVKGRFTISRDNAKNTVYLQMNSLKPEDTAVYYCAAAWPYARYDYWGQGTQVTVSS,low polyreactivity
9,QVQLVESGGGLVQAGGSLRLSCAASGSTFYYYAMGWSRQAPGKERELVAGITWSGGRTYYADSVKGRFTISRDNAKNTVYLQMNSLKTEDTAVYYCAASLYTWTYQPVYYRDGYWGQGTQVTVSS,low polyreactivity
10,QVQLVESGGGLVQAGGSLRLSCAASGSTFYYYAMGWSRQAPGQERELVAAISWRGSSTYYADAVQGRFTISRDNAKNTVYLQLNSLKPEDTAVSYCAAGYPGRVSGYRYGTRATYYYWGQGTQVTVSS,high polyreactivity
11,QVQLVESGGGLVQAGGSLRLSCAASGSTFYYYAMGWYRPAPGKERELVAAIRSDVSTNYADSVKGRFTISRDNAKNTVYLQMNSLKPEDTAVYYCAARFPWNRVTYDYWGQGTQVTVSS,low polyreactivity
12,QVQLVESGGGLVQAGGSLRLSCAASGSTFYYYAMGWYRQAPGKEMELVAAISGSGGNTYYADSVKGRFTISRDNAKNTVYLQMNSLKPEDTAVYYCAADYGYPLGVSWYGYGYWGQGTQVTVSS,low polyreactivity
13,QVQLVESGGGLVQAGGSLRLSCAASGSTFYYYAMGWYRQAPGKERELVAAIDRDDRTNYADSVKGRFTISRDNAKNTVYLQMNSLKPEDTAVYYCAAVEIYEYDYWGQGTQVTVSS,low polyreactivity
14,QVQLVESGGGLVQAGGSLRLSCAASGSTFYYYAMGWYRQAPGKERELVAAINSSGGNTYYADSVKGRFTISRDNAKNTVYLQMNSLKPEDTAVYYCATGQIAYSSYGPFDYWGQGTQVTVSS,low polyreactivity
15,QVQLVESGGGLVQAGGSLRLSCAASGSTFYYYAMGWYRQAPGKERELVAAINSSGGNTYYADSVKGRFTISRDNAKNTVYLQMNSLNPEDTAVYYCATEYYWLQDYDYWGHGTQVTVSS,low polyreactivity
16,QVQLVESGGGLVQAGGSLRLSCAASGSTFYYYAMGWYRQAPGKERELVAAISWSGGSTYYADSVKGRFTISRDNAKNTVYLQMNSLKPEDTAVYYCNKYVRFRGGAYVTGYDYWGQGTQVTVSS,high polyreactivity
17,QVQLVESGGGLVQAGGSLRLSCAASGSTFYYYAMGWYRQAPGKERELVAAITKSGGSTYYADSVKGRFTISGDNAKNTVYLQMNTLKPEDTAVYYCAAYLRSGYKFDYWGQGTQVTVSS,low polyreactivity
18,QVQLVESGGGLVQAGGSLRLSCAASGSTFYYYAMGWYRQAPGKERELVAAITYSGGGTYYADSVKGRFTISRDNAKNTFYLQMNSLKPEDTAVYYCAKTIAVNTWYYYWGQGTQVTVSS,low polyreactivity
19,QVQLVESGGGLVQAGGSLRLSCAASGSTFYYYAMGWYRQAPGKERELVASISASGGNTYYADSVKGRFTISRDNAKNTVYLQMNSLKPEDTAVYYCAARARRSQSISLKYYYWGQGTQVTVSS,high polyreactivity
20,QVQLVESGGGLVQAGGSLRLSCAASGSTFYYYAMGWYRQAPGKERELVASISDDGSTNYADSVKGRFTISRDNAKNTVYLQMNSLKPEDTAVYYCAAVWWHQFGSAWYQMGYWGQGTQVTVSS,low polyreactivity
21,QVQLVESGGGLVQAGGSLRLSCAASGSTFYYYAMGWYRQAPGKERELVASITTGGGSTYYADSVKGRFTISRDNAKNTFYLEMNSLKPEDTAVYYCAAALSYYFWWYDYLGQGTQVTVSS,low polyreactivity
22,QVQLVESGGGLVQAGGSLRLSCAASGSTFYYYAMGWYRQAPGKERELVATITSTGRTNYADSVKGRFTISRDNAKNTVYLQMNSLKPEDTAVYYCAALRRIQRPEYGYWGQGTQVTVSS,low polyreactivity

row,Sequence,polyreactivity (PSR sort gate)
1,QVQLVESGGGLVQAGGSLRLSCAASGSTFYYYARGWYRQAPGKERELVATITSGASTNYADSVKGRFTISRDNAKNTVYLQMNSLKPEDTAVYYCNAVSLTSYLPWSSYDYWGQGTQVTVSS,low polyreactivity
2,QVQLVESGGGLVQAGGSLRLSCAASGSTFYYYGMGWYRQAPGKERELVASISWGGGSTYYADSVKGRFTISRDNAKNTVYLQMNILKPEDTAVYYCATRGSYLGGLYDYWGQGTQVTVSS,high polyreactivity
3,QVQLVESGGGLVQAGGSLRLSCAASGSTFYYYGMGWYRQAPGKESALVAAISSSGGNTYYADSVKGRFTISRDNAKNTVYLQMNSLKPEDTAVYYCARGGHRGYWGQGTQVTVSS,low polyreactivity
4,QVQLVESGGGLVQAGGSLRLSCAASGSTFYYYTMGCYRQAPGKEREFVAAITRSGGSTYYADSVKGRFTISRDNAKNTVYLQMNSLKPEDTAVYYCAATRQRVKSEYWGQGTQVTVSS,low polyreactivity
5,QVQLVESGGGLVQAGGSLRLSCAASGSTFYYYTMGWYRQAPGKEREFVAAITRSGGSTYYADSVKGRFTISRDNSKNTVYFQMNSLKPEDTAVYYCNVDGTSSSPFVQKHKEMDYWGQGTQVTVSS,low polyreactivity
6,QVQLVESGGGLVQAGGSLRLSCAASGSTFYYYVMGWYRQAPGKERELVATITSGGSTNYADSVKGRFTISRDNAKNTVYLQMNSLKPEDTAVYYCAADWYLIIARSRPTLDYDYWGQGTQVTVSS,low polyreactivity
7,QVQLVESGGGLVQAGGSLRLSCAASGSTIAGNAMGWYRQAPGKERELVAVITRGGSTNYADSVKGRFTISRDNAKNTVSLQMNSLKPEDTAVYYCARYRFLLDYWRGGYYWGQGTQVTVSS,high polyreactivity
8,QVQLVESGGGLVQAGGSLRLSCAASGSTIDGYAKGWYTQAPGKEREFVAAISFSSASTYYADSVKGRFTISSDNAKNTFYLQMNSLIPEDTAVYDCAASYKGLWHGDYDYWGQGTQVTVSS,low polyreactivity
9,QVQLVESGGGLVQAGGSLRLSCAASGSTIEPYAMGWYRQAPGKEREFVAVITLSGGTTYYADSVKGRFTISRDNAKNTVYLQMHSLKPEDTAVYYCNAQYRKARVDEYYYWGQGTQVTVSS,high polyreactivity
10,QVQLVESGGGLVQAGGSLRLSCAASGSTIFENVMGWYRQAPGKEREFVAAINTSGGSTYYADSVKGRFTISRDNAKNTVYLQMNSLKPEDTAVYYCARDSYWEMDYWGQGTQVSVSS,low polyreactivity
11,QVQLVESGGGLVQAGGSLRLSCAASGSTIGFYTMGWYRQAPGKERELVATISYSGGDTYYADSVKGRFTISRDNAKNTVYLQMNSLKPEDTAVYYCAADLGDYVTTYSWLDSWGQGTQVTVSS,low polyreactivity
12,QVQLVESGGGLVQAGGSLRLSCAASGSTIGRYTMGWYRQAPGKERELVAAITGSGAGTYYADSVKGRFTISRDNAKNTVYLQMNRLKPEDTAVYYCNTVFRGGQFRYVRGVKYGYWGQGTQVTVSS,high polyreactivity
13,QVQLVESGGGLVQAGGSLRLSCAASGSTIGSYAMGWYRQAPGKERELVAVITGGGDTNYADSVKGRFTISRDNAKNTVYLQMNSLKPEDTAVYYCAAEGSFYRYHVGSDYWGQGTQLTVSS,low polyreactivity
14,QVQLVESGGGLVQAGGSLRLSCAASGSTIGYNAMGWYRQAPGKERELVAAISGSGTDTRYADSVKGRFTISRDNAKNTFYLQMNSRNPEDTAVYYCAVSVVYRGSKRVRQNPMEYWGQGTQVTVSS,high polyreactivity
15,QVQLVESGGGLVQAGGSLRLSCAASGSTILTYVMGWYRQAPGKERELVAAISYSGGRSYYADSVKGRFTISRDTAKNTVYLQMNSLKPEDTAVYYCAAYRVNKSSRTMDYWGQGTQVTVSS,high polyreactivity
16,QVQLVESGGGLVQAGGSLRLSCAASGSTINFYAMGWYRQAPGKERELVAAIRVSSGSTYYADSVKGRFTISRDNAKNTVYLQMDSLKPEDTAVYYCAAYLKVRSPRDGYDYWGQGTQVTVSS,high polyreactivity
17,QVQLVESGGGLVQAGGSLRLSCAASGSTINIYAMGWYRQAPGKERELVAAISGRGGSTYYADSVKGRFTISRDNAKNTVYLQMNSLKPEDTAVYYSAASGYKVGSYRARMYYWGQGTQVTVSS,high polyreactivity
18,QVQLVESGGGLVQAGGSLRLSCAASGSTIPLYAMGWYRQAPGKERELVAAISRSGGRTYYADSVKGRFTISRDNAKNTVYLQMNSLKPEDTAVYYCDSAQGSRVDYWGQGTQVTVSS,high polyreactivity
19,QVQLVESGGGLVQAGGSLRLSCAASGSTIPPYAMGWYRQAPGNERELVAAITSGGSTYYADSVKGRFTISRDNAKNTVYLQMNSLKPEDTAVYYCAASWDPWEYDYWGQGTQVTVSS,low polyreactivity
20,QVQLVESGGGLVQAGGSLRLSCAASGSTISYYAMGWYIQAPGKERELVAAISQTGGTTYYADSVKGRFTISRDNAKNTVYLQMNSLKPEDTAVYYCNAARPGGHYWGQGTQVTVSS,low polyreactivity
21,QVQLVESGGGLVQAGGSLRLSCAASGSTISYYAMGWYRQAPGKERELVAAITWNGGSTYYADSVKGRFTISRDNAKNTVYLQMNSLKPEDTAVYYCAKDTYYYDYDYWGQGTQVTVSS,low polyreactivity
